Molecular target: the molecule itself
Assay: cryo-EM structure

B1: zebrafish RAG1 (recombination-activating gene 1 protein), residues 271-1031, with N-terminal 6xHis-MBP tag (domain or fragment, UniProt O13033 271-1031, looked up)
chain: RCQRDHLSTKLIPTEVPADLIRAVTCQVCDHLLSDPVQSPCRHLFCRLCIIRYTHALGPNCPTCNQHLNPSHLIKPAKFFLATLSSLPLLCPSEECSDWVRLDSFREHCLNHYREKESQEEQTPSEQNLDGYLPVNKGGRPRQHLLSLTRRAQKHRLRDLKNQVKTFAEKEEGGDVKSVCLTLFLLALRAGNEHKQADELEAMMQGRGFGLHPAVCLAIRVNTFLSCSQYHKMYRTVKATSGRQIFQPLHTLRNAEKELLPGFHQFEWQPALKNVSTSWDVGIIDGLSGWTVSVDDVPADTISRRFRYDVALVSALKDLEEDIMEGLRERALDDSMCTSGFTVVVKESCDGMGDVSEKHGSGPAVPEKAVRFSFTIMSISIRLEGEDDGITIFQEQKPNSELSCRPLCLMFVDESDHETLTAILGPVVAERKAMMESRLIISVGGLLRSFRFFFRGTGYDEKMVREMEGLEASGSTYICTLCDSTRAEASQNMVLHSITRSHDENLERYEIWRKNPFSESADELRDRVKGVSAKPFMETQPTLDALHCDIGNATEFYKIFQDEIGEVYQKPNPSREERRRWRSTLDKQLRKKMKLKPVMRMNGNYARRLMTREAVEAVCELVPSEERREALLKLMDLYLQMKPVWRSTCPSRDCPDQLCQYSYNSQQFADLLSSMFKYRYDGKITNYLHKTLAHVPEIVERDGSIGAWASEGNESGNKLFRRFRKMNARQSKTFELEDILKHHWLYTSKYLQKFMEAHKNS
  stoichiometry N: 2

From paper PMC6080600 (Nature structural & molecular biology, 2018)
